Measured values as given in the nanobody polyreactivity screen of Harvey et al. (2022).

Experiment: yeast display, Sf9 membrane polyspecificity reagent, FACS + sequencing; frameworks hold sequencing errors
How it was run: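 Galactose induction of a Saccharomyces cerevisiae BJ5465 synthetic nanobody display library ran 36–48 hours. The cells were then stained for 1 hour at 4 °C with 10% biotinylated, detergent-solubilized Sf9 membrane reagent, pulled down on streptavidin microbeads and FACS-sorted into low and high (top ~1%) gates on expression and reagent-binding fluorescence. Labels for polyreactivity follow the gate of origin.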
In the case of “QVQLVESRGGLVQAGGSLRLSCAASGSTLYQYAMGWYRQAPGKERELVAAITKSGGRTYYADSVKGRFTISRDNAKNTVYLHMNSLKPEDTAVYYCNVVRGSYSSGGDYWGQGTQVTVSS”, the “polyreactivity (PSR sort gate)” value is reported as “high polyreactivity”.
For “QVQLVESRGGLVQAGGSLRLSCAASGYIFRSNAMGWYRQAPGKERELVAAITRSGGSTYYADSVKGRFTISRDNAKITVFLQMNSLKPEDTAVYYCAVLPRGSNGMDYWGQGTQVTVSS”, the “polyreactivity (PSR sort gate)” value was “low polyreactivity”.
In the case of “QVQLVESRGGLVQAGGSLRLSCAASGYTFDWYTMGWYRQAPGKERELVAAISASGVRTYYADSVKGRFTISRDNAKNTVYLQMNSLKPEDTAVYYCYRVYSTSRITQYEFDYWGLGTQVTVSS”, the “polyreactivity (PSR sort gate)” value is reported as “low polyreactivity”.
In the case of “QVQLVESRGGLVQAGGSLRLSCAASVRTFQKNTMGWYRQAPGKERELVAAIDYSATSTYYADSVKGRFTISRDNAKNTVYLQMNSLKPEDTAVYYCAARWSYPRWEFDYWGQGTQVTVSS”, the “polyreactivity (PSR sort gate)” value is reported as “high polyreactivity”.
In the case of “QVQLVESRGGLVQAGGSLRLSCSASGFIRTYAMGWYRQAPAKERELVAAITSSGGRTNYADSVKGRFTISRDNAKNTVYLQMNSLKPEDTAVYYCAAGLGRYLRYNYWGQGTQVTVSS”, the “polyreactivity (PSR sort gate)” value is reported as “high polyreactivity”.
With “QVQLVESRGGLVQAGGSLRLSCSASGITFNHYAMGWYRQAPGKERQLVAAITGSGGSTYYADSVKGRFTISRDNGKNTVYLQMNSLKPEDTAVYYCKTSPKLTYAVLYDYWGQGTQVTVSS” the “polyreactivity (PSR sort gate)” value was “high polyreactivity”.
For “QVQLVESRGGLVQAGGSLRLSSAASGFIFDDNAMGWYRQAPGKERQLVAAITSGGGSTYYADSVKGRFTISRDNAKNTVYLQMNSLKPDDTAVYSCNAKLFIRWFTYDYWGQGTQVTVSS”, the “polyreactivity (PSR sort gate)” value was “low polyreactivity”.
For “QVQLVESRGGLVQAGGSLRLTCAAYGRIFLVYDMGWYRHAPGKERELVAAISWSTGSTYYADSVKGRFTISRDNAKNTFYFQINSLITEDTAVYYCAAEPELDDYEHDYWGQGTQLTVSS”, the “polyreactivity (PSR sort gate)” value was “low polyreactivity”.
In the case of “QVQLVESRGGLVQVGGSLRLSCAASGRTFGRYAMGWYRQAPGNERELVAAINSVARTNYADSVKGRFTISRDNAKNTVYLQMNSLKPEDSAVYYCAARRRGSVGVGYAYPYNYWGQGTQVTVSS”, the “polyreactivity (PSR sort gate)” value is reported as “high polyreactivity”.
For “QVQLVESRGGVVQAGGSLRLSSAASGTFVYAMGWYRQAPGKERELVAAISYSGGSTYYADSVKGRFTISRDNAKNTVYLQMNSLKPEDTAVYYCAARTTLSYGYDYWGQGTQVTVSS”, the “polyreactivity (PSR sort gate)” value was “high polyreactivity”.
For “QVQLVESRRGLVQAGASLPLRCAASVSTLDTYAMGLYRQAPGKERELVAAISRSGNSTYYADSVKGRFTISRDNAKNTVYLQMNSLKPEDTAVYYCAAYGPRVNGEIGREYYYWGQGTQVTVSS”, the “polyreactivity (PSR sort gate)” value was “low polyreactivity”.
With “QVQLVESRRGLVQAGGSIRLSCAASGSTFPYNAMGWYRQAPGKDRELVAAITSAGGTNYADSVKGRFTISRDNAKNSVYLQMNSLKPEDSAVYSCAAVGSGYYDGYFYWGQGTQVTVSS” the “polyreactivity (PSR sort gate)” value was “low polyreactivity”.
In the case of “QVQLVESRVGLVQAGGSLRLSCAASGFTFGHYVMGWYRQAPGKERELVAAITLSGGGTYYADSVKGRFTISRDNAKNTVYLQMNSLKPEDTAVYYCAAVGGEHAKKTYSRYKVDYWGQGTQVTVSS”, the “polyreactivity (PSR sort gate)” value is reported as “low polyreactivity”.
For “QVQLVESSGGLVQAGGSLRLSCAASGSTFALYAMGRYSQAPGKERELVAAITASGGSTYYADSVKGRLTISRDIAKKTVDLQMNSLKAEDTAVYYCATGRTKRYLYPPGYWGQGTQVTVSS”, the “polyreactivity (PSR sort gate)” value was “high polyreactivity”.
With “QVQLVESVGCLVQAGGSLRLSCPASGFNFPGYALGWYRQAPGKERELVAAITGSGGRTYYADSVKGRFTISRDNAKNTVYLQMNSLKQEDTAVYYCLARSYYNWNDYWGQGTQVTVSS” the “polyreactivity (PSR sort gate)” value was “high polyreactivity”.
With “QVQLVESVGGIVQAGGSLRLSCAASGSIINWYAMGWYRQAPGKERELVAAISSSGSTNYADSVKGRFTISRDNAKNTVYLQMNSLKPEDTAVYYCNADEYYLNNYNYGYWGQGTQVTVSS” the “polyreactivity (PSR sort gate)” value was “low polyreactivity”.
For “QVQLVESVGGLDQAGGSLRLSCAASGFTFQYYAMGWYRQAPGKERELVAAITSNGGGTYYADSVKGRFTISRDNAKNTVYLQMNSLKPEDTAVYYCAADRWYSMDYWGQGTQVTVSS”, the “polyreactivity (PSR sort gate)” value was “high polyreactivity”.
With “QVQLVESVGGLGQAGGSLRLSCAASGSTFAGYTMGWYRQAPGKERELVAANTSRGGRTYYADSVKGRFTISRDNAKNTVYIQMNSLKPEDTAVYYCAAVSRYYAELMYYWGQGTQVTVSS” the “polyreactivity (PSR sort gate)” value was “high polyreactivity”.
For “QVQLVESVGGLLQAGGSLRLSCAASGFTFSGNGRGWYRQAPGKERELVAAITSTGNTYYADSVKGRFTISRDNAKKTVYLQMNRLKPEDTAVYYCARRGDLLYDYWGQGTQVTVSS”, the “polyreactivity (PSR sort gate)” value was “low polyreactivity”.
For “QVQLVESVGGLLQAGGSLRLSCAASGSIFRGYAMGWYRQAPGKERDLVAAISWSGGSTYYADSVKGRFTISRDNAKNTVYLQMNRLKPEDTAVYYCAADRVVFGYWYYYWGQGTQVTVSS”, the “polyreactivity (PSR sort gate)” value was “high polyreactivity”.
For “QVQLVESVGGLLQAGGSLRLSCDASGSIFADYAMGWYRQAPGKERELVAVITSSGGSTNYADSVKGRFTISRDNAKNTVYLQMNSLKPEDTAVYYCNRRPYPSYDYWGQGTQVTVSS”, the “polyreactivity (PSR sort gate)” value was “low polyreactivity”.
In the case of “QVQLVESVGGLVHAGGSLRLSCAASGRTFGYNAMGWYRQATGKERELVAAISFRGGTTYYADSVKGRFTISRDNAKITVYLQMNCLIPEDPSVYYCAARYYYRYTGGRLDYWGQGTQVTVSS”, the “polyreactivity (PSR sort gate)” value is reported as “high polyreactivity”.
With “QVQLVESVGGLVHAGGSLRLSCAASGSTFRYNAMGWYRQAPGKDRELVAAISWSGGSTYYADSVKGRFTISRDNAKNTVYFQMNSLIPEDTAVYYCAKVYFWGALSPDKYDEDYWGQGTQVTVSS” the “polyreactivity (PSR sort gate)” value was “low polyreactivity”.
In the case of “QVQLVESVGGLVKAGGSLRLSCAASGRTFYNAMGWYRQAPGKERELVAAISSDGSTYYADSVKGRFTISRDNAKNTVYLQMNSLKPEDTAVYYCARDLGSWYYQVRFGYWGQGTQVTVSS”, the “polyreactivity (PSR sort gate)” value is reported as “high polyreactivity”.
In the case of “QVQLVESVGGLVLAGGSLRLSCAASGFTFPRYVMGSYRPAPGKAREFVAAITFSGGSTYYADSVKGRFTIARDNAKNTVYLQMNSLKPEDTAVYYCAAGASLWRLGLKRGYWGQGTQVTVSS”, the “polyreactivity (PSR sort gate)” value is reported as “low polyreactivity”.
With “QVQLVESVGGLVQAGASLPLSCAASGRIFPYYAMGWYRQAPGKESEFVAAITKRGGSTSYADSVKGRFTISRDNAKNTVYLQMNSLKPEDTAVYYCAARRGSGFFTYYGGAFWGQGTLVTVSS” the “polyreactivity (PSR sort gate)” value was “low polyreactivity”.
In the case of “QVQLVESVGGLVQAGASLRLSCAASGLNIYTYAMGWYRQAPGKERELVAAIRWRGGRTYYADSVNGRFTISRDNAKNTVYLQMNSLKPEDTAVYYCAADYSNLYKSDYWGQGTQVTLSS”, the “polyreactivity (PSR sort gate)” value is reported as “low polyreactivity”.
For “QVQLVESVGGLVQAGCTLPLSCAASGLIFYLYAMGWYRQATGKERELVARISRGGSTNYADSVKGRFTISRDNAKNTVYLQMNSLNPDDTAVYYCAADWFFSLGEMYYWGQGTQVTVSS”, the “polyreactivity (PSR sort gate)” value was “low polyreactivity”.
For “QVQLVESVGGLVQAGGRLRLSCAASGSTFPRYTRGWYRQAPGKERELVAAISSRGGSTIYADSVKGRFTNSRDNAMNTVYLEMNSLKPEDSAVYYCAARRASRDGYWGQGTQVTVSS”, the “polyreactivity (PSR sort gate)” value was “high polyreactivity”.
With “QVQLVESVGGLVQAGGSLPLSCAASGRTFTSYAMGWYRQAPGKERELVAAINYSGGSTYYADSVKGRFTISRDNAKNTVYLQMNSLKPEETAVYYCAKSSHAREYYYWGQGTQVTVSS” the “polyreactivity (PSR sort gate)” value was “low polyreactivity”.
In the case of “QVQLVESVGGLVQAGGSLRIICAASGSIFTDNAMGWYRQAPGTERELVAAISRSGGNTYYADSVKGRFTISRDNAKNTVYLQMNSLKPEDTAVYYCAARQKGTGNYWGQGTQVTVSS”, the “polyreactivity (PSR sort gate)” value is reported as “high polyreactivity”.
In the case of “QVQLVESVGGLVQAGGSLRLICAASGSTIFYNAMGWYRQAPGKERELVAAISWSGGRTYYADSVKGRFTISRDNAKNTVYLQMYRLKPEDNAVYYCNTVVSKYYKVGFGSWGQGTQVTVSS”, the “polyreactivity (PSR sort gate)” value is reported as “high polyreactivity”.
In the case of “QVQLVESVGGLVQAGGSLRLSCAASGFIFRKYVMGLYIQAPGKERELVAAITRSCTSTYYADSVKGRFTISRDNAKNTVYLQMNSLKPEDTAVYYCNVGSDGWYYWGQGTQVTVSS”, the “polyreactivity (PSR sort gate)” value is reported as “low polyreactivity”.
For “QVQLVESVGGLVQAGGSLRLSCAASGFIFWDNAMGWYRQAPGKERELVAAISKSGTRTYYADSVKGRFTISRDNAKNTVYLQMNSLKPEDTAVYSCAAEGSGYEYYYWGQGTQVTVSS”, the “polyreactivity (PSR sort gate)” value was “high polyreactivity”.
With “QVQLVESVGGLVQAGGSLRLSCAASGFIQGAYAMGWYRPAPGKERELVAAITSSGGSTYYADSVKGRFTISRDNAKNTVYLQMNSLKPEDTAVYYCNTVYVYGPEYDYWGQGTQVTVSS” the “polyreactivity (PSR sort gate)” value was “high polyreactivity”.
For “QVQLVESVGGLVQAGGSLRLSCAASGFIVSTYAMGWYRQAPGKERELVAAITNSGGSTYYADSVKGRFTISRDNAKNTVYLQMNSLKPEDTAVYYCARRRSYRDNYWGQGTQVTVSS”, the “polyreactivity (PSR sort gate)” value was “high polyreactivity”.
With “QVQLVESVGGLVQAGGSLRLSCAASGFTFGRYAMGWYRQAPGKERELVAAISFSGGRTYYADSVKGRFTISRDNAKNTVYLQMNSLKPEDTAVYYCAARRRQEHVGRSSYARYDYWGQGTQVTVSS” the “polyreactivity (PSR sort gate)” value was “high polyreactivity”.
For “QVQLVESVGGLVQAGGSLRLSCAASGFTFRHYVMGWYRQQPGKERELVAAIDVRGGSTYYADSVKGRFTISRDNAKNTVYLQMNSLKPEDTAVYYCAKRLIPRLPNLQKMDYWGQGTQVTVSS”, the “polyreactivity (PSR sort gate)” value was “low polyreactivity”.
For “QVQLVESVGGLVQAGGSLRLSCAASGFTFVSNAMGWDRQEPGKERELVAAISTGGRTYYADSVKGRFTISRDNAKNTVYLQMNSLKTEDTAFYYCNARYGLRYVRYGEMDYWGQGTQVTVSS”, the “polyreactivity (PSR sort gate)” value was “high polyreactivity”.
For “QVQLVESVGGLVQAGGSLRLSCAASGFTFYGYAMGWYRQAPGKERELVAAITSGGITNYADSVKGRFTISRDNAKNTVYLQMNSLKPEDTAVYYCNVKRRVSGYYGYKYYYWGQGTQVTVSS”, the “polyreactivity (PSR sort gate)” value was “high polyreactivity”.
With “QVQLVESVGGLVQAGGSLRLSCAASGFTFYRYAMGWYRQAPGKERELVAAISWSGGSTYYADSVKGRFTISRDNAKNTVYLQMNSLKPEDTAVYYCAARGGYYDYYYWGQGTQVTVSS” the “polyreactivity (PSR sort gate)” value was “high polyreactivity”.
In the case of “QVQLVESVGGLVQAGGSLRLSCAASGGIFWVYAMGWYRQAPGKERELVAAISNSDTSTSYADSVKGRFTISRDNAKNTVYLQMNSLKPEDTAVYYCNADSPSLSGDYWGQGTQVTVSS”, the “polyreactivity (PSR sort gate)” value is reported as “low polyreactivity”.
In the case of “QVQLVESVGGLVQAGGSLRLSCAASGITFAWYALGWYRQAPGKERELVAAITWSGDSTYYADSVKGRFTISRDNAKNTVYLQMNSLKPEDTAVYYCAAAYFSSGYKYYYWGQGTQVTVSS”, the “polyreactivity (PSR sort gate)” value is reported as “high polyreactivity”.
